The target in test [1] is extrinsic tenase complex (FVIIa/TF_(PCPS)), the [E] complex (human) (UniProt P13726).
The target in test [2] is [ES] complex (FVIIa/TF_(PCPS)/FX) (UniProt P13726). In words: enzyme inhibition kinetics (mixed-type fit, secondary plots); FX activation by FVIIa (10 pM) in complex with recombinant human TF (Innovin); FX 0.58-50 nM; ringhalexin 50-150 nM; 50 mM HEPES pH 7.4, 140 mM NaCl, 5 mM CaCl2, 1% BSA, 37 °C; FXa read by hydrolysis of 500 μM S-2222 at 405 nm.
For test [3], the target named is extrinsic tenase complex (FVIIa/TF_(PCPS)), the [E] complex (human) (UniProt P13726). The description is as above.

B1: ringhalexin (Ringhals extrinsic tenase complex inhibitor) (natural protein)
chain: RLCLSDYSIFSETIEICPEGHNYCFKKFPKGITRLPWVIRGCAATCPKPEAQVYVDCCARDKCNR
In general, Ki refers to a dissociation constant, usually derived from enzyme kinetics or from competition with a known ligand. The molecule B1 displayed an inhibition of FX activation by the reconstituted extrinsic tenase complex (FXa formed, measured by S-2222 hydrolysis); ringhalexin 100 pM to 3 μM, FX 30 nM in test [1] of 124 nM. Also, in test [2], the Ki' (inhibitor constant for the [ES] complex) turned out to be 152 nM. In addition, the Ki in test [3] worked out at 84.2 nM.

The values are drawn from paper PMC4865804.
